# Assay: soluble fraction after stress (log2 fold change); higher = more stays soluble; pooled small domains, quantitative proteomics
# Conditions: stress: pH 4
# Procedure, shortened: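 High-throughput quantitative proteomics was run on pooled custom libraries of small protein domains following pH 4 stress. Fold changes are on a log2 scale; higher values mean more of a domain remained soluble. The fold change in soluble amount is taken as a measure of aggregation propensity.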
row,Sequence,soluble fraction (log2)
1,HMGHRQRRARARNRSMLEDIPGLGPKRRQQLLRQFGGLPQLMRAGVAELSQVPGISDSLARKIHAELHPES,-1.87
2,HMTRIHEEVVNQVHDLVKEGRFKAGDQLPSERELAEIFKVSRTSVREALRALETQGLIISRTGMGNFIAD,-0.472
3,HMTDEEFSRIVKYTAVRYGINLYHKKVMVEGRLSNYLAANGFKSYTEYMDRVEADYTGQEAQNLINILTT,-1.3
4,HMDDIVFPNPTKNQINVSIDGLKNIYNLSGKLLISTNDKIIDVSILKAGVYFINTNEQFYKFVK,-0.797
5,HMRSVPNVAGLGMDGAAFQLGKAGFAIGTITPADDPKAVVGSIQRTEPAAGTVADRDTVVNLFQV,0.22
6,HMENNIILNYVKDNLNITEKDAKDLIELLGSDYYHIKNETNKIAAFLDGQPYSFEKIKNLISIDKEY,-0.644
7,HMQIYSQEIYDAQKVLKELGLYTSDLDGLNGPGTKRALRNFQSKSGLNADGVLGPLTKSALDKGEESYITV,-0.0943
8,HMREWPLWEIFIRGQHGLNHRHVGSLHAPDAAMAIGNARDVYTRRNEGVSIWAVRSADVVASVPSE,-1.44
9,HMEVKVSGHLEAIGGVYHMKLSWIDDAGKRRRKSKSTGLAERGNKKRANDMLIDFMREQEAEIAASGD,≥ 0.43
10,HMIHDSAESVVFPFGKYKGYTLAHVIREHPHYTYWIRDNADFSPLWREAVSLALQNRDIGHLNLPHVK,-0.606
11,HMPTITSPMVGTFYRAPSPGAAPFIEVGDTVKKGQVIGIIEAMKLLNEVEADKDGVVQAFAAENGEL,-0.681
12,HMAQSLAQKINNYILTNRSSIANVAKSIGYSRTTVSRYLAGKYDSDPTDLENKLAEFLAHETGE,0.017
13,HMQMSWDAVKARLQDIVNNEDKTKPFNDEMLASKLKEQGIEIARRTVVKYRQQLGIPAARLRKK,-0.17
14,HMSLPQSKDAVITILRTLPQLDTRAPEVYKLLGPHALDIILEDPEQVAKKINHVGVATAKLWQQALLGFK,0.198
15,HMFESQYIGKIATAITDISAFSGRLKIYDENWEARTLGEDAPEIKKGAKVKIVRHDDLTMFVEKK,0.087
16,HMKFDVNAAIRAVLNVTVDKGATLERIMKETNLTSDQLVLPIALLMKTERLHFKRSGTHEVYVSVGKAPDK,-0.0868
17,HMGIERTNADTSFSVNVYGKELIITSNKPLVVNIYAIDGTLVRTEQVTIGVNTVSGLPSGIYVVGQQKVVI,-0.752
18,HMDAQLRVPDLTPYNYSELKENTSLYEGFTIEVVEERSTGDYAAGTVLDQDPKADTLIQDGDSTVIKLVIA,-0.115
19,HMGKRGKEMQTAVLAILRASDRPYSAYELLESLKDIYPKIAPPTVYRALAALTQRGQIRRLESLNAFI,0.22
20,HMVVLNQEQIKFIDHYLQVSKVRYVDVRSELTDHIATAVELKMQDEALDFYEAFKAFIAVNKSQLLQRN,-0.975
21,HMELNGVSETAKSVYSIILNNSSTVDDIVIKTKLPAAKVMQALTELELNDAVERKSGGVYALP,-0.0324
22,HMRWAAIMGREVAAHSTPESLVEGKLHIRTDTTAWATQLRLMSADIVRRLNEVLGEGTVLEVDVRG,-1.12
23,HMITAEQENILFEKASDDISNNIINKGIWTKAYSQAGGDESKQKAIYIDLLVNYYKMLIKAGEEFEDI,-2.05
24,HMAQLTPREREVLVLIAEGKSNKEIADQLNIGVRTIETHRERIMRRLNIHSVAGLTKYAIANGLVTL,0.0239
25,HMADEIQIGLQKAIQSLPEKQKLVFSMRYYDEIPYDEMSKILDMSVGTLKTNYHYAKQKIEDFLQNH,-0.0771
26,HMTRNEFMTALRKRLSHLPAEEQDAALKYYEEYFDEAESEEEAARQLGSPDAIADRILADYGAG,-0.261
27,HMDDDAELLLKKLSAAGGELPFHDRSEPAEIEAAFGLSKSAFKRALGKLLKAGKVVKTQQGIQLK,0.266
28,HMSEEGTIPDVSGQDEASAQKALENAGFTNIKSEAVYSEEEQGTVIDTNPTAGTKVSKDTEITMQVSKGSE,0.108
29,HMKDRDISNAVLNILSKDSDHNYNYKQIASVLGVKDPFVRKRIVSVLAQLTKNGQLEEISRGKYQIKN,-0.694
30,HMMESLGIRLKRLRKDKGLTQVELGKLSGVTGVTIGYWEKDLNEPGSKALSKLAQALGTTESYLLYGVS,0.22

# Reference: the domain aggregation screens of Martell et al. (2025)
